{"source": "the Human Domainome abundance scans (Beltran et al. 2025)", "note": "± gives the uncertainty stated by the source.", "data": [{"assay": "abundance fitness (aPCA) (normalised: wild type 0, dead -1); higher = more abundant; growth selection in yeast, the domain comes from the species named", "conditions": "Homo sapiens", "values": [{"substance": "Transcriptional activator Myb T177F, P10242", "abundance fitness": "-0.79 ± 0.18"}, {"substance": "Transcriptional activator Myb R176G, P10242", "abundance fitness": "-0.728 ± 0.062"}, {"substance": "Transcriptional activator Myb I169A, P10242", "abundance fitness": "-0.477 ± 0.1"}, {"substance": "Transcriptional activator Myb R176H, P10242", "abundance fitness": "0.043 ± 0.16"}, {"substance": "Transcriptional activator Myb H184N, P10242", "abundance fitness": "-0.817 ± 0.067"}, {"substance": "Transcriptional activator Myb L173C, P10242", "abundance fitness": "0.012 ± 0.12"}, {"substance": "Transcriptional activator Myb S203G, P10242", "abundance fitness": "0.072 ± 0.066"}, {"substance": "Transcriptional activator Myb A170S, P10242", "abundance fitness": "-0.038 ± 0.087"}, {"substance": "Transcriptional activator Myb L173G, P10242", "abundance fitness": "-1.08 ± 0.11"}, {"substance": "Transcriptional activator Myb I155M, P10242", "abundance fitness": "-0.178 ± 0.12"}, {"substance": "Transcriptional activator Myb Q195E, P10242", "abundance fitness": "0.006 ± 0.15"}, {"substance": "Transcriptional activator Myb A180D, P10242", "abundance fitness": "-0.022 ± 0.12"}, {"substance": "Transcriptional activator Myb R191A, P10242", "abundance fitness": "0.036 ± 0.075"}, {"substance": "Transcriptional activator Myb K204T, P10242", "abundance fitness": "-0.012 ± 0.13"}, {"substance": "Transcriptional activator Myb I155Y, P10242", "abundance fitness": "-1.21 ± 0.21"}, {"substance": "Transcriptional activator Myb A170R, P10242", "abundance fitness": "-0.516 ± 0.059"}, {"substance": "Transcriptional activator Myb T148Q, P10242", "abundance fitness": "-0.437 ± 0.055"}, {"substance": "Transcriptional activator Myb R153F, P10242", "abundance fitness": "-0.068 ± 0.094"}, {"substance": "Transcriptional activator Myb I154E, P10242", "abundance fitness": "-0.5 ± 0.076"}, {"substance": "Transcriptional activator Myb R191G, P10242", "abundance fitness": "-0.038 ± 0.068"}, {"substance": "Transcriptional activator Myb K204M, P10242", "abundance fitness": "-0.111 ± 0.11"}, {"substance": "Transcriptional activator Myb L199A, P10242", "abundance fitness": "-0.05 ± 0.062"}, {"substance": "Transcriptional activator Myb N186Y, P10242", "abundance fitness": "-0.154 ± 0.15"}, {"substance": "Transcriptional activator Myb W147Y, P10242", "abundance fitness": "-0.22 ± 0.045"}, {"substance": "Transcriptional activator Myb N179G, P10242", "abundance fitness": "0.004 ± 0.041"}, {"substance": "Transcriptional activator Myb S203E, P10242", "abundance fitness": "0.079 ± 0.16"}, {"substance": "Transcriptional activator Myb M189P, P10242", "abundance fitness": "-0.386 ± 0.17"}, {"substance": "Transcriptional activator Myb G175F, P10242", "abundance fitness": "-0.308 ± 0.12"}, {"substance": "Transcriptional activator Myb R191L, P10242", "abundance fitness": "-0.058 ± 0.077"}, {"substance": "Transcriptional activator Myb T145V, P10242", "abundance fitness": "-0.007 ± 0.068"}, {"substance": "Transcriptional activator Myb W147C, P10242", "abundance fitness": "-0.638 ± 0.042"}, {"substance": "Transcriptional activator Myb G197C, P10242", "abundance fitness": "0.032 ± 0.098"}, {"substance": "Transcriptional activator Myb N183S, P10242", "abundance fitness": "-0.019 ± 0.085"}, {"substance": "Transcriptional activator Myb W147N, P10242", "abundance fitness": "-0.65 ± 0.042"}, {"substance": "Transcriptional activator Myb K192T, P10242", "abundance fitness": "-0.232 ± 0.13"}, {"substance": "Transcriptional activator Myb P174A, P10242", "abundance fitness": "-0.359 ± 0.066"}, {"substance": "Transcriptional activator Myb A167S, P10242", "abundance fitness": "-0.095 ± 0.09"}, {"substance": "Transcriptional activator Myb K171F, P10242", "abundance fitness": "-0.638 ± 0.22"}, {"substance": "Transcriptional activator Myb L172E, P10242", "abundance fitness": "-0.177 ± 0.089"}, {"substance": "Transcriptional activator Myb E149W, P10242", "abundance fitness": "-0.719 ± 0.47"}, {"substance": "Transcriptional activator Myb W147V, P10242", "abundance fitness": "-0.65 ± 0.036"}, {"substance": "Transcriptional activator Myb G163S, P10242", "abundance fitness": "-0.406 ± 0.078"}, {"substance": "Transcriptional activator Myb E150D, P10242", "abundance fitness": "-0.152 ± 0.095"}, {"substance": "Transcriptional activator Myb G163E, P10242", "abundance fitness": "-0.25 ± 0.088"}, {"substance": "Transcriptional activator Myb V193G, P10242", "abundance fitness": "-0.041 ± 0.051"}, {"substance": "Transcriptional activator Myb I155E, P10242", "abundance fitness": "-0.521 ± 0.092"}, {"substance": "Transcriptional activator Myb R191E, P10242", "abundance fitness": "0.004 ± 0.086"}, {"substance": "Transcriptional activator Myb K192P, P10242", "abundance fitness": "-0.082 ± 0.12"}, {"substance": "Transcriptional activator Myb I181A, P10242", "abundance fitness": "-0.569 ± 0.084"}, {"substance": "Transcriptional activator Myb W166T, P10242", "abundance fitness": "-0.63 ± 0.11"}, {"substance": "Transcriptional activator Myb E151N, P10242", "abundance fitness": "-0.674 ± 0.12"}, {"substance": "Transcriptional activator Myb K192F, P10242", "abundance fitness": "-0.301 ± 0.29"}, {"substance": "Transcriptional activator Myb N179Y, P10242", "abundance fitness": "-0.075 ± 0.1"}, {"substance": "Transcriptional activator Myb E201G, P10242", "abundance fitness": "-0.076 ± 0.054"}, {"substance": "Transcriptional activator Myb T145N, P10242", "abundance fitness": "-0.179 ± 0.26"}, {"substance": "Transcriptional activator Myb T177A, P10242", "abundance fitness": "-0.137 ± 0.063"}, {"substance": "Transcriptional activator Myb K171T, P10242", "abundance fitness": "-0.148 ± 0.2"}, {"substance": "Transcriptional activator Myb Y156P, P10242", "abundance fitness": "-0.859 ± 0.1"}, {"substance": "Transcriptional activator Myb Q200C, P10242", "abundance fitness": "-0.18 ± 0.11"}, {"substance": "Transcriptional activator Myb E150P, P10242", "abundance fitness": "-0.468 ± 0.12"}, {"substance": "Transcriptional activator Myb R153I, P10242", "abundance fitness": "-0.284 ± 0.13"}, {"substance": "Transcriptional activator Myb R176K, P10242", "abundance fitness": "-0.022 ± 0.097"}, {"substance": "Transcriptional activator Myb E196F, P10242", "abundance fitness": "-0.247 ± 0.15"}, {"substance": "Transcriptional activator Myb N183K, P10242", "abundance fitness": "-0.192 ± 0.099"}, {"substance": "Transcriptional activator Myb G175M, P10242", "abundance fitness": "-0.283 ± 0.098"}, {"substance": "Transcriptional activator Myb S187W, P10242", "abundance fitness": "-0.108 ± 0.07"}, {"substance": "Transcriptional activator Myb E150K, P10242", "abundance fitness": "0.117 ± 0.11"}, {"substance": "Transcriptional activator Myb N183Y, P10242", "abundance fitness": "-0.343 ± 0.1"}, {"substance": "Transcriptional activator Myb E194L, P10242", "abundance fitness": "-0.192 ± 0.088"}, {"substance": "Transcriptional activator Myb A167G, P10242", "abundance fitness": "0.045 ± 0.06"}, {"substance": "Transcriptional activator Myb M189G, P10242", "abundance fitness": "-0.268 ± 0.05"}, {"substance": "Transcriptional activator Myb T177G, P10242", "abundance fitness": "-0.12 ± 0.043"}, {"substance": "Transcriptional activator Myb K182V, P10242", "abundance fitness": "-0.176 ± 0.058"}, {"substance": "Transcriptional activator Myb S187I, P10242", "abundance fitness": "-0.033 ± 0.14"}, {"substance": "Transcriptional activator Myb R153D, P10242", "abundance fitness": "-0.25 ± 0.095"}, {"substance": "Transcriptional activator Myb G175I, P10242", "abundance fitness": "-0.961 ± 0.35"}, {"substance": "Transcriptional activator Myb Q195K, P10242", "abundance fitness": "-0.388 ± 0.41"}, {"substance": "Transcriptional activator Myb E201W, P10242", "abundance fitness": "-0.204 ± 0.08"}, {"substance": "Transcriptional activator Myb S202R, P10242", "abundance fitness": "-0.144 ± 0.063"}, {"substance": "Transcriptional activator Myb W147F, P10242", "abundance fitness": "0.081 ± 0.038"}, {"substance": "Transcriptional activator Myb K144S, P10242", "abundance fitness": "0.067 ± 0.085"}, {"substance": "Transcriptional activator Myb A167F, P10242", "abundance fitness": "-0.092 ± 0.12"}, {"substance": "Transcriptional activator Myb L173Y, P10242", "abundance fitness": "-0.627 ± 0.31"}, {"substance": "Transcriptional activator Myb A167I, P10242", "abundance fitness": "-0.253 ± 0.22"}, {"substance": "Transcriptional activator Myb K171M, P10242", "abundance fitness": "0 ± 0.08"}, {"substance": "Transcriptional activator Myb P174M, P10242", "abundance fitness": "-0.329 ± 0.093"}, {"substance": "Transcriptional activator Myb N186R, P10242", "abundance fitness": "-0.047 ± 0.059"}, {"substance": "Transcriptional activator Myb S203Y, P10242", "abundance fitness": "-0.113 ± 0.15"}, {"substance": "Transcriptional activator Myb Y198V, P10242", "abundance fitness": "-0.042 ± 0.069"}, {"substance": "Transcriptional activator Myb M189A, P10242", "abundance fitness": "-0.343 ± 0.068"}, {"substance": "Transcriptional activator Myb K143Y, P10242", "abundance fitness": "-0.201 ± 0.16"}, {"substance": "Transcriptional activator Myb W166K, P10242", "abundance fitness": "-0.786 ± 0.2"}, {"substance": "Transcriptional activator Myb L173Q, P10242", "abundance fitness": "-1.13 ± 0.25"}, {"substance": "Transcriptional activator Myb M189W, P10242", "abundance fitness": "-0.36 ± 0.093"}, {"substance": "Transcriptional activator Myb Q200D, P10242", "abundance fitness": "-0.139 ± 0.11"}, {"substance": "Transcriptional activator Myb E201Y, P10242", "abundance fitness": "-0.377 ± 0.14"}, {"substance": "Transcriptional activator Myb S203R, P10242", "abundance fitness": "-0.145 ± 0.074"}, {"substance": "Transcriptional activator Myb W185Y, P10242", "abundance fitness": "-0.034 ± 0.14"}, {"substance": "Transcriptional activator Myb K144H, P10242", "abundance fitness": "-0.232 ± 0.12"}, {"substance": "Transcriptional activator Myb T177W, P10242", "abundance fitness": "-0.533 ± 0.073"}, {"substance": "Transcriptional activator Myb W185Q, P10242", "abundance fitness": "-1.05 ± 0.25"}, {"substance": "Transcriptional activator Myb K204L, P10242", "abundance fitness": "-0.07 ± 0.18"}, {"substance": "Transcriptional activator Myb W166I, P10242", "abundance fitness": "-0.834 ± 0.17"}, {"substance": "Transcriptional activator Myb S203A, P10242", "abundance fitness": "-0.01 ± 0.085"}, {"substance": "Transcriptional activator Myb A170E, P10242", "abundance fitness": "-0.285 ± 0.12"}, {"substance": "Transcriptional activator Myb E149N, P10242", "abundance fitness": "-0.526 ± 0.35"}, {"substance": "Transcriptional activator Myb V193Q, P10242", "abundance fitness": "-0.14 ± 0.16"}, {"substance": "Transcriptional activator Myb Y198E, P10242", "abundance fitness": "0.057 ± 0.099"}]}]}
